Reference: PMC10439913
pKd: −log10 of the molar value.

How the values were obtained:
[1] = molecular target: Domain-11 of human M6P/IGF2R (D11), C-terminally His-tagged (human) (UniProt P11717); assay: radioligand binding; competition of cold ligand with [125I]-monoiodotyrosyl-Tyr2-IGF2 for immobilized D11; Kd of the tracer 2 nM
His-tagged IGFBP3 [2] = molecular target: His-tagged IGFBP3 (UniProt P17936); assay: radioligand binding; saturation binding of 0-5 nM [125I]-monoiodotyrosyl-Tyr2-IGF2 to His-tagged IGFBP3 immobilized on a 96-well plate via neutravidin and Ni-NTA iBodies; 16 h at 5 °C, 100 mM HEPES pH 7.6, 100 mM NaCl, 1% BSA; nonspecific binding with 10 µM unlabeled IGF2
Chain of His-tagged IGFBP3 (P17936 28-291): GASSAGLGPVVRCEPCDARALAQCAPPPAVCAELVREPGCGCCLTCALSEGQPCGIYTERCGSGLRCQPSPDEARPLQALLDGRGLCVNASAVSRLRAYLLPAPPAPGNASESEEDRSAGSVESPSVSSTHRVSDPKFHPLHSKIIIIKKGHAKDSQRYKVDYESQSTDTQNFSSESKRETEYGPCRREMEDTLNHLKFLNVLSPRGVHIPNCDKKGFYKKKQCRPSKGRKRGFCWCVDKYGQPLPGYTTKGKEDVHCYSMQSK

[3] = molecular target: mannose-6-phosphate/IGF2 receptor (M6P/IGF2R), native in R- cells (mouse (endogenous in R- cells)) (UniProt Q07113); assay: radioligand binding; saturation binding of 0-5 nM [125I]-monoiodotyrosyl-Tyr2-IGF2 to 14,000 R- cells per well; 16 h at 5 °C, 100 mM HEPES pH 7.6, 100 mM NaCl, 1% BSA; nonspecific binding with 10 µM unlabeled IGF2; one-site fit
[4] = molecular target: IGFBP3:ALS complex, preformed on immobilized His-tagged ALS (UniProt P35858); assay: radioligand binding; saturation binding of 0-5 nM [125I]-monoiodotyrosyl-IGF2 to IGFBP3 (no His-tag, 25 ng/well) preformed in complex with His-tagged ALS (10 ng/well) immobilized via neutravidin and Ni-NTA iBodies; 16 h at 5 °C, 100 mM HEPES pH 7.6, 100 mM NaCl, 1% BSA
Chain of IGFBP3:ALS complex, preformed on immobilized His-tagged ALS (P35858 28-605, chain 1 of 2): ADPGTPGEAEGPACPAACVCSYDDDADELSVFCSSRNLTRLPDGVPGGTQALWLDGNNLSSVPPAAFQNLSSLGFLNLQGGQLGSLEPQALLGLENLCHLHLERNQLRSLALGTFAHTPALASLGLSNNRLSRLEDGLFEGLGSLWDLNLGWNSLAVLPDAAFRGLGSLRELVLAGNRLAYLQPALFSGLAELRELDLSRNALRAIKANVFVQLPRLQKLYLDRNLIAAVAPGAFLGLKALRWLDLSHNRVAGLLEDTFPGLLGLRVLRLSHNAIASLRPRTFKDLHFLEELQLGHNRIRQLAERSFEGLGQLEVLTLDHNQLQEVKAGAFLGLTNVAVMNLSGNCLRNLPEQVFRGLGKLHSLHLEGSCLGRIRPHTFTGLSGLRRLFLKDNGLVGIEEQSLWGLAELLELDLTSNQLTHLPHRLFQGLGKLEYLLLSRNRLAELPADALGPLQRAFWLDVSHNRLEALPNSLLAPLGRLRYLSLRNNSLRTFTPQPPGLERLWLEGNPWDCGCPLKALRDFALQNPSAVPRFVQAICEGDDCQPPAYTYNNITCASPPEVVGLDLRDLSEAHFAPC
Chain of IGFBP3:ALS complex, preformed on immobilized His-tagged ALS (P17936 28-291, chain 2 of 2, further chain): as the sequence (P17936 28-291) above

His-tagged IGFBP3 [5] = molecular target: His-tagged IGFBP3 (UniProt P17936); assay: radioligand binding; saturation binding of 0-5 nM [125I]-monoiodotyrosyl-IGF2 to His-tagged IGFBP3 (25 ng/well) immobilized via neutravidin and Ni-NTA iBodies; 16 h at 5 °C, 100 mM HEPES pH 7.6, 100 mM NaCl, 1% BSA
His-tagged IGFBP3 [6] = molecular target: His-tagged IGFBP3 (UniProt P17936); assay: radioligand binding; competition of cold ligand (10^-12-10^-6 M) with [125I]-monoiodotyrosyl-Tyr2-IGF2 (43,000 cpm) for His-tagged IGFBP3 immobilized via neutravidin and Ni-NTA iBodies; 16 h at 5 °C, HEPES pH 7.6; affinity relative to IGF2
[7] = molecular target: Domain-11 of human M6P/IGF2R (D11) (human) (UniProt P11717); assay: radioligand binding; competition of cold ligand with [125I]-monoiodotyrosyl-Tyr2-IGF2 for immobilized D11 (as in ref. 33); affinity relative to IGF2
Chain of Domain-11 of human M6P/IGF2R (D11) (human) (P11717 1514-1648): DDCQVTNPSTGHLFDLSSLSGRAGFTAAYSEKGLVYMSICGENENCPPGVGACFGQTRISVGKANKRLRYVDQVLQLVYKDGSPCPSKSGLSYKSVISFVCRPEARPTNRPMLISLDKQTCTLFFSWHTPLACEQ

[8] = molecular target: IGFBP3:ALS complex, preformed on immobilized His-tagged ALS (UniProt P35858); assay: radioligand binding; competition of cold ligand (10^-12-10^-6 M) with [125I]-monoiodotyrosyl-Tyr2-IGF2 (43,000 cpm) for the IGFBP3:ALS complex immobilized through the His-tag of ALS; 16 h at 5 °C, HEPES pH 7.6; affinity relative to IGF2
[9] = molecular target: insulin receptor isoform B (IR-B) (human) (UniProt P06213); assay: radioligand binding; competition of cold ligand with [125I]-monoiodotyrosyl-TyrA14-insulin for human IR-B on transfected mouse fibroblasts; one-site fit; affinity relative to human insulin
[10] = molecular target: IGF1 receptor (IGF1R) (human) (UniProt P08069); assay: radioligand binding; competition of cold ligand with [125I]-iodotyrosyl-IGF1 for human IGF-1R on R+39 mouse fibroblasts; one-site fit; affinity relative to IGF1
[11] = molecular target: mannose-6-phosphate/IGF2 receptor (M6P/IGF2R), native in R- cells (mouse (endogenous in R- cells)) (UniProt Q07113); assay: radioligand binding; competition of cold ligand (10^-12-10^-6 M) with [125I]-monoiodotyrosyl-Tyr2-IGF2 (43,000 cpm) for M6P/IGF2R on R- cells; 16 h at 5 °C, 100 mM HEPES pH 7.6, 100 mM NaCl, 1% BSA; affinity relative to IGF2
[12] = molecular target: insulin receptor isoform A (IR-A) (human) (UniProt P06213); assay: radioligand binding; competition of cold ligand with [125I]-monoiodotyrosyl-TyrA14-insulin for human IR-A on whole IM-9 lymphocytes; one-site fit; affinity relative to human insulin
His-tagged IGFBP3 [13] = molecular target: His-tagged IGFBP3 (UniProt P17936); assay: radioligand binding; competition of cold ligand (10^-12-10^-6 M) with [125I]-monoiodotyrosyl-Tyr2-IGF2 for His-tagged IGFBP3 immobilized on a 96-well plate via neutravidin and Ni-NTA iBodies; 16 h at 5 °C, 100 mM HEPES pH 7.6, 100 mM NaCl, 1% BSA
[14] = molecular target: human insulin receptor isoform B (IR-B) in transfected mouse fibroblasts (human) (UniProt P06213); assay: radioligand binding; competition of cold ligand with [125I]-monoiodotyrosyl-TyrA14-insulin on mouse fibroblasts transfected with human IR-B; Kd by one-site fit, Kd of the tracer 0.3 nM
[15] = molecular target: human IGF1 receptor in transfected mouse fibroblasts (R+39 cells) (human) (UniProt P08069); assay: radioligand binding; competition of cold ligand with [125I]-iodotyrosyl-IGF1 on R+39 cells (mouse fibroblasts with human IGF-1R); Kd by one-site fit, Kd of the tracer 0.2 nM
[16] = molecular target: human insulin receptor isoform A (IR-A) in human IM-9 lymphocytes (human) (UniProt P06213); assay: radioligand binding; competition of cold ligand with [125I]-monoiodotyrosyl-TyrA14-insulin on human IM-9 lymphocytes; Kd by one-site fit, Kd of the tracer 0.3 nM
[17] = molecular target: IGFBP3:ALS complex, preformed on immobilized His-tagged ALS (UniProt P35858); assay: radioligand binding; competition of cold ligand (10^-12-10^-6 M) with [125I]-monoiodotyrosyl-Tyr2-IGF2 for the IGFBP3:ALS complex immobilized through the His-tag of ALS; 16 h at 5 °C, 100 mM HEPES pH 7.6, 100 mM NaCl, 1% BSA; Kd of the tracer 5.9 nM
[18] = molecular target: native M6P/IGF2R in R- cells (mouse embryonic fibroblasts) (mouse (endogenous in R- cells)) (UniProt Q07113); assay: radioligand binding; competition of cold ligand (10^-12-10^-6 M) with [125I]-monoiodotyrosyl-Tyr2-IGF2 on R- cells; 16 h at 5 °C, 100 mM HEPES pH 7.6, 100 mM NaCl, 1 mM EDTA, 1% BSA; Kd of the tracer 8.2 nM

Chain of Domain-11 of human M6P/IGF2R (D11), C-terminally His-tagged (human) (P11717 41-2491): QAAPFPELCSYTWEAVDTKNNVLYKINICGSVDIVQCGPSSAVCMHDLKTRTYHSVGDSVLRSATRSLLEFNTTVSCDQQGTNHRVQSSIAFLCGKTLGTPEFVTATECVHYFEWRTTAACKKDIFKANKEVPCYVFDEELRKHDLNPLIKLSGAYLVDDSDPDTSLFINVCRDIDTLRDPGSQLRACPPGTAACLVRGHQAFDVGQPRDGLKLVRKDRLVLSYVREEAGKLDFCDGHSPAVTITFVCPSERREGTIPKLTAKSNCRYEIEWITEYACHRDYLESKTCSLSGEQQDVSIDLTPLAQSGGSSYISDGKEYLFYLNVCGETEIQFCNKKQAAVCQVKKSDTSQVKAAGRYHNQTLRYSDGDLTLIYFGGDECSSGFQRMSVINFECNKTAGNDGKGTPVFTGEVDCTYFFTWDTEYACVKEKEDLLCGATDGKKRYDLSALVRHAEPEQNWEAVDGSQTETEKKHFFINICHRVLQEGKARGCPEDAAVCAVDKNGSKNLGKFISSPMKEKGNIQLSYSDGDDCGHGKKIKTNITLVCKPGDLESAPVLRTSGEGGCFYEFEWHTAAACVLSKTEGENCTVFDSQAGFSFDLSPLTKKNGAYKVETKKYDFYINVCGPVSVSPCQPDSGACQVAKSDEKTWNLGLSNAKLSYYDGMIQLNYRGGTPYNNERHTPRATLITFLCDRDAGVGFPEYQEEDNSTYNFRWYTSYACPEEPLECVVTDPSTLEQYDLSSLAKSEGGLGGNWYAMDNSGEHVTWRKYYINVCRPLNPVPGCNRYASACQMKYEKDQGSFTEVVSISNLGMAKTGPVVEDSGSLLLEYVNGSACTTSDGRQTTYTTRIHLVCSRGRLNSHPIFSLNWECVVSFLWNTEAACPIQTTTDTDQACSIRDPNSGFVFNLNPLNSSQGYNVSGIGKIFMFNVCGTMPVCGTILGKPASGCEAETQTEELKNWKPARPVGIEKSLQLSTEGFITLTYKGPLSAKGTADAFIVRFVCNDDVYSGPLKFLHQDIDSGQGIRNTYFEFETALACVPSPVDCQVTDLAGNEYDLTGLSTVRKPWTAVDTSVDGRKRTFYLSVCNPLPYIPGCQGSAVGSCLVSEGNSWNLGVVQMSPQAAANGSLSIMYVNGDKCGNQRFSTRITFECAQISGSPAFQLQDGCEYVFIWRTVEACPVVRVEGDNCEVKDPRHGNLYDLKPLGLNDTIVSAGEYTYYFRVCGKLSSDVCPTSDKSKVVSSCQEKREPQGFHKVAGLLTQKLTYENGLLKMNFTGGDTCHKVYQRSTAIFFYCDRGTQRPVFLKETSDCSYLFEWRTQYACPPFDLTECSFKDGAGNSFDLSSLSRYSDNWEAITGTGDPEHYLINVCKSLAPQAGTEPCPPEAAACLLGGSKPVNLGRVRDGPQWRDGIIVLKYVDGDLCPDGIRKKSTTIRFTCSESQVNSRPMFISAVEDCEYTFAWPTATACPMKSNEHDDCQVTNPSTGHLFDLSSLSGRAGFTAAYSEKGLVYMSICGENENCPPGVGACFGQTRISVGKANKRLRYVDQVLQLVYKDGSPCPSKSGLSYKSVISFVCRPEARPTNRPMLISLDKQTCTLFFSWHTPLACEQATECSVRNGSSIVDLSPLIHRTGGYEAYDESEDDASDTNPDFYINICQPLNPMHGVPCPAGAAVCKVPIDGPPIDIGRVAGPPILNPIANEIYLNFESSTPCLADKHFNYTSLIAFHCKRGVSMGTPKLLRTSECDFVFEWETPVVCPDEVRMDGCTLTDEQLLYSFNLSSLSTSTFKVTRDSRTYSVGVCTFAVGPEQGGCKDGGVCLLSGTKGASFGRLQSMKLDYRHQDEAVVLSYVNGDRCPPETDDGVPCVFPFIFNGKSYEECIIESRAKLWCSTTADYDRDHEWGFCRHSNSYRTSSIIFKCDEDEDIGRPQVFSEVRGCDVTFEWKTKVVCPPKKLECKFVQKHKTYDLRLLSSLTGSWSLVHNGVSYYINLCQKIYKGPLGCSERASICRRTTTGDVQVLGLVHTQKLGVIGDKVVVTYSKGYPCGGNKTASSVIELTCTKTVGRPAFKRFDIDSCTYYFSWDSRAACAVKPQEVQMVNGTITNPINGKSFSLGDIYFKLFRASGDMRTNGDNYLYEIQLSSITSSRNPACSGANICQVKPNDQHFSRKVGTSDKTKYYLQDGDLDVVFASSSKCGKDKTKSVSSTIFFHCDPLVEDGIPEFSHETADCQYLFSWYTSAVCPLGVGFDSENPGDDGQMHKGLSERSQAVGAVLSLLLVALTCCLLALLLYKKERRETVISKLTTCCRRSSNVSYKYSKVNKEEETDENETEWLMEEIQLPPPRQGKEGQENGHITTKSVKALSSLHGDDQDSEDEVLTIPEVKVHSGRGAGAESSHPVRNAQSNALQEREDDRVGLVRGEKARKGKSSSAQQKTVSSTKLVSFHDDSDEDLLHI

“Insulin-like Growth Factor-2 (IGF2), native mature 67-amino-acid protein (from UniProt P01344 25-91) (ligand)” gave a pKd [1] of 8.89.
“[125I]-monoiodotyrosyl-Tyr2-IGF2 (ligand)” was tested, and the pKd (His-tagged IGFBP3 [2]) was 9.23.
“[^125I]-monoiodotyrosyl-Tyr2-IGF2 (ligand)” was tested, and the pKd [3] was 8.09, the pKd [4] was 8.23 and the pKd (His-tagged IGFBP3 [5]) was 9.25.
In the case of big-IGF2(87) (ligand), the relative binding affinity (% of IGF2) (His-tagged IGFBP3 [6]) was 70%, the relative binding affinity (% of IGF2) [7] was 73% and the relative binding affinity (% of IGF2) [8] was 58%. The relative binding affinity (% of human insulin) [9] was 2.7%, the relative binding affinity (% of IGF1) [10] was 14.8% and the relative binding affinity (% of IGF2) [11] was 227%. It also gave a relative binding affinity (% of human insulin) [12] of 7.1%.
With big-IGF2(87), non-glycosylated (ligand) the pKd [1] was 8.75, the pKd (His-tagged IGFBP3 [13]) was 9.54 and the pKd [14] was 8.02. The pKd [15] was 8.80, the pKd [16] was 8.42 and the pKd [17] was 8.79. The pKd [18] was 9.25.
big-IGF2(104) (ligand) was tested, and the relative binding affinity (% of IGF2) (His-tagged IGFBP3 [6]) was 146%, the relative binding affinity (% of IGF2) [7] was 698% and the relative binding affinity (% of IGF2) [8] was 17%. For the same substance, the relative binding affinity (% of human insulin) [9] was 2.9%, the relative binding affinity (% of IGF1) [10] was 9.7% and the relative binding affinity (% of IGF2) [11] was 887%. The relative binding affinity (% of human insulin) [12] was 9.8%.
With “big-IGF2(104), non-glycosylated (ligand)” the pKd [1] was 9.72, the pKd (His-tagged IGFBP3 [13]) was 9.85 and the pKd [14] was 8.05. For the same substance, the pKd [15] was 8.61, the pKd [16] was 8.56 and the pKd [17] was 8.25. The pKd [18] was 9.85.
“pro-IGF2(156), non-glycosylated (from UniProt P01344 25-180) (ligand)” was tested, and the pKd [1] was 8.64.
